Tests used:
RXRa = RXRa (Homo sapiens, UniProt P19793); assay: no ligand; PBM; 180 nM; PBS pH 7.4, 2% milk, 0.02% Triton X-100, 1 mM DTT, BSA, 0.4 mg/ml salmon testes DNA; settings: tags: His cleaved; chain copies: 2; label: surface-attached array probe
LXRa:RXRa = LXRa:RXRa (Homo sapiens, UniProt Q13133;P19793 full;full); assay: no ligand; PBM; 270 nM : 90 nM RXRa; PBS pH 7.4, 2% milk, 0.02% Triton X-100, 1 mM DTT, BSA, 0.4 mg/ml salmon testes DNA; settings: tags: His kept;His cleaved; copies: 1;1; label: surface-attached array probe
Sequence of LXRa:RXRa (Q13133 whole entry, chain 1 of 2): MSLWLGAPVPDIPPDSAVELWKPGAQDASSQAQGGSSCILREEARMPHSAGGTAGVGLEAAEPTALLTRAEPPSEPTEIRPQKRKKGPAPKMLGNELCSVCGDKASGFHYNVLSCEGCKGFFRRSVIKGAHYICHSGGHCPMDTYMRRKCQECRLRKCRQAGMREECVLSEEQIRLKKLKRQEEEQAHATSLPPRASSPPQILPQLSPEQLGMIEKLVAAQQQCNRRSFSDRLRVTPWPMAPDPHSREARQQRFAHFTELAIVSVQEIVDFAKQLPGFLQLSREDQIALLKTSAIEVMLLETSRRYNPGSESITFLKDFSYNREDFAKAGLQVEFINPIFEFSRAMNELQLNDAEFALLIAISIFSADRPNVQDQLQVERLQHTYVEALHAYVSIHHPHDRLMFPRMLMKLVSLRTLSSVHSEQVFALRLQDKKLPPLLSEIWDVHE
Sequence of LXRa:RXRa (P19793 whole entry, chain 2 of 2): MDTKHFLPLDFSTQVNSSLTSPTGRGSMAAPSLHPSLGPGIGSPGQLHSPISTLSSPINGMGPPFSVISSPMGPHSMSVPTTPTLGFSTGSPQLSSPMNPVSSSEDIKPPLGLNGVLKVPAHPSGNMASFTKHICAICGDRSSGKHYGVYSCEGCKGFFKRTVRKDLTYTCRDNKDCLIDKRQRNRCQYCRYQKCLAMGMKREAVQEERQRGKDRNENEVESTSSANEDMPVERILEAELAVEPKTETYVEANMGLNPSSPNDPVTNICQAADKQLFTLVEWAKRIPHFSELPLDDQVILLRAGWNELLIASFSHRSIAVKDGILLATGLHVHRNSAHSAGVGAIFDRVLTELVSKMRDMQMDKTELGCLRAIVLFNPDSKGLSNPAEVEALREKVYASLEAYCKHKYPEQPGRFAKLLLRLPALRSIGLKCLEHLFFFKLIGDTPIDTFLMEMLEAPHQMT
In short: (§1)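 Binding z-scores were set against random background probes. The data came from custom Agilent 4×180K protein-binding microarrays carrying double-stranded probes with 34-nt variable regions, incubated 1 h with ligand-free nuclear receptor dimers. Partner-specific antibodies detected binding, and scanned fluorescence was regression-normalized.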

RARg:RXRa = RARg:RXRa (Homo sapiens, UniProt P13631;P19793 full;full); assay: as above; settings: tags: His kept;His cleaved; copies: 1;1; label: surface-attached array probe
In short: as §1

RARb:RXRa = RARb:RXRa (Homo sapiens, UniProt P10826;P19793 full;full); assay: as above; settings: tags: His kept;His cleaved; copies: 1;1; label: surface-attached array probe
In short: as §1

LXRb:RXRa = LXRb:RXRa (Homo sapiens, UniProt P55055;P19793 full;full); assay: as above; settings: tags: His kept;His cleaved; copies: 1;1; label: surface-attached array probe
Sequence of LXRb:RXRa (P55055 whole entry, chain 1 of 2): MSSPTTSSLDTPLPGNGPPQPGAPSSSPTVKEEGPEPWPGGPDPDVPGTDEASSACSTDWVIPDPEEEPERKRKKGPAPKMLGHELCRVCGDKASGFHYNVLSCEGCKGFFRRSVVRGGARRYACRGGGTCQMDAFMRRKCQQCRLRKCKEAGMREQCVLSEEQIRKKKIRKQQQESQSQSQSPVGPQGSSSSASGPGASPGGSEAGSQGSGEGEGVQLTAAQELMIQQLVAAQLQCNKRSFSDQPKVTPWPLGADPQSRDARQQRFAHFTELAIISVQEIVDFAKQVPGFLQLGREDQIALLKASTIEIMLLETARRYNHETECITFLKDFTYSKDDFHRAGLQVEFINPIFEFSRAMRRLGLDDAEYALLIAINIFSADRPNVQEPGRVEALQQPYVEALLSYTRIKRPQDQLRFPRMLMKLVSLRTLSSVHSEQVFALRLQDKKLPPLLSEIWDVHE
Sequence of LXRb:RXRa (P19793 whole entry, chain 2 of 2): as the sequence (P19793 whole entry, chain 2 of 2) above
In short: as §1

PXR:RXRa = PXR:RXRa (Homo sapiens, UniProt O75469;P19793 full;full); assay: as above; settings: tags: His kept;His cleaved; copies: 1;1; label: surface-attached array probe
In short: as §1

VDR:RXRa = VDR:RXRa (Homo sapiens, UniProt P11473;P19793 full;full); assay: as above; settings: tags: His kept;His cleaved; copies: 1;1; label: surface-attached array probe
Sequence of VDR:RXRa (P11473 whole entry, chain 1 of 2): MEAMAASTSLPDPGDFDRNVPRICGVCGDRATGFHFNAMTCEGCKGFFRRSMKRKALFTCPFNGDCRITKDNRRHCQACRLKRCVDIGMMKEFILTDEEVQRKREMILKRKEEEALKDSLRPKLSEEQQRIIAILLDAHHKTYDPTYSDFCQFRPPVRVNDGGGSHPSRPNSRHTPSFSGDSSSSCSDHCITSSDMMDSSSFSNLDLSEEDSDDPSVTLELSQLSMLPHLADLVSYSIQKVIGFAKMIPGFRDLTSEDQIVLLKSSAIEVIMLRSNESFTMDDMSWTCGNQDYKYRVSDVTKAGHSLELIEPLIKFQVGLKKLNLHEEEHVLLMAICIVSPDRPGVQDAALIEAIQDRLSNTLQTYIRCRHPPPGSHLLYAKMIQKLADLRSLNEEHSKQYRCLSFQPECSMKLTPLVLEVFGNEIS
Sequence of VDR:RXRa (P19793 whole entry, chain 2 of 2): as the sequence (P19793 whole entry, chain 2 of 2) above
In short: as §1

PPARa:RXRa = PPARa:RXRa (Homo sapiens, UniProt Q07869;P19793 full;full); assay: as above; settings: tags: GST kept;His cleaved; copies: 1;1; label: surface-attached array probe
Sequence of PPARa:RXRa (Q07869 whole entry, chain 1 of 2): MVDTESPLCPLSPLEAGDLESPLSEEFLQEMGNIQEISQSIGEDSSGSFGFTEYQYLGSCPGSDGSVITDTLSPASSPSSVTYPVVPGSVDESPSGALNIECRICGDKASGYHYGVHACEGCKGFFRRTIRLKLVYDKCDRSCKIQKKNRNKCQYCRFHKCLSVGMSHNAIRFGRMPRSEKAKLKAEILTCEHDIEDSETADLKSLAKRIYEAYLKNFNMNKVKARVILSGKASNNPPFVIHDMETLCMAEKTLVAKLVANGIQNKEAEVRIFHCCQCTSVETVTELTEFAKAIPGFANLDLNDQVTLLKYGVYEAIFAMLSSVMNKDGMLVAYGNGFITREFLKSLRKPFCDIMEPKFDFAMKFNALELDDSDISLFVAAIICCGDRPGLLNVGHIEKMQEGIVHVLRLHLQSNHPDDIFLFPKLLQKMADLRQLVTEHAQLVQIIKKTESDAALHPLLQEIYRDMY
Sequence of PPARa:RXRa (P19793 whole entry, chain 2 of 2): as the sequence (P19793 whole entry, chain 2 of 2) above
In short: as §1

FXR:RXRa = FXR:RXRa (Homo sapiens, UniProt Q96RI1;P19793 full;full); assay: as above; settings: tags: His kept;His cleaved; copies: 1;1; label: surface-attached array probe
In short: as §1

RARa:RXRa = RARa:RXRa (Homo sapiens, UniProt P10276;P19793 full;full); assay: as above; settings: tags: His kept;His cleaved; copies: 1;1; label: surface-attached array probe
In short: as §1

THRa:RXRa = THRa:RXRa (Homo sapiens, UniProt P10827;P19793 full;full); assay: no ligand; PBM; 90 nM : 90 nM RXRa; PBS pH 7.4, 2% milk, 0.02% Triton X-100, 1 mM DTT, BSA, 0.4 mg/ml salmon testes DNA; settings: tags: His kept;His cleaved; copies: 1;1; label: surface-attached array probe

Sequence of RXRa (P19793 whole entry): as the sequence (P19793 whole entry, chain 2 of 2) above

| Binder | binding signal (RXRa) | binding signal (LXRa:RXRa) | binding signal (RARg:RXRa) | binding signal (RARb:RXRa) | binding signal (LXRb:RXRa) | binding signal (PXR:RXRa) | binding signal (VDR:RXRa) | binding signal (PPARa:RXRa) | binding signal (FXR:RXRa) | binding signal (RARa:RXRa) | binding signal (THRa:RXRa) |
| --- | --- | --- | --- | --- | --- | --- | --- | --- | --- | --- | --- |
| NRC3_wobSeed73_DR3_T8G_o1 (dsDNA) DNA 1: GCCAAACGAGGTCACAGAGGTCAAAGTCCGTGCGTAGCGATTGACAGCGTAGAATGAAGG DNA 2: CCTTCATTCTACGCTGTCAATCGCTACGCACGGACTTTGACCTCTGTGACCTCGTTTGGC | 9.83 PBM z-score against 500 random probes | 7.82 PBM z-score against 500 random probes | 8.72 PBM z-score against 500 random probes | 5.94 PBM z-score against 500 random probes | 7.74 PBM z-score against 500 random probes | 8.14 PBM z-score against 500 random probes | 8.86 PBM z-score against 500 random probes | 7.16 PBM z-score against 500 random probes | 9.18 PBM z-score against 500 random probes | 9.08 PBM z-score against 500 random probes | 5.25 PBM z-score against 500 random probes |
| NRC3_wobSeed100_DR4_C12T_o1 (dsDNA) DNA 1: GCCCTACTGGGTCACGAAAGGTCATTGATTCAGTGAGCGATTGACAGCGTAGAATGAAGG DNA 2: CCTTCATTCTACGCTGTCAATCGCTCACTGAATCAATGACCTTTCGTGACCCAGTAGGGC |  | 8.11 PBM z-score against 500 random probes |  | 5.53 PBM z-score against 500 random probes | 6.66 PBM z-score against 500 random probes | 7.22 PBM z-score against 500 random probes |  |  |  | 7.1 PBM z-score against 500 random probes | 5.47 PBM z-score against 500 random probes |
| NRC3_wobSeed121_DR5_T8A_o1 (dsDNA) DNA 1: GCCAAACAAGGTCACCGGAAGGTCAAAGTCCGCATGGCGATTGACAGCGTAGAATGAAGG DNA 2: CCTTCATTCTACGCTGTCAATCGCCATGCGGACTTTGACCTTCCGGTGACCTTGTTTGGC | 8.89 PBM z-score against 500 random probes | 7.26 PBM z-score against 500 random probes | 9.36 PBM z-score against 500 random probes | 6.21 PBM z-score against 500 random probes | 7.08 PBM z-score against 500 random probes | 7.43 PBM z-score against 500 random probes | 7.25 PBM z-score against 500 random probes |  | 8.52 PBM z-score against 500 random probes | 8.86 PBM z-score against 500 random probes | 5.05 PBM z-score against 500 random probes |
| NRC3_wobSeed121_DR5_T8G_o1 (dsDNA) DNA 1: GCCAAACGAGGTCACCGGAAGGTCAAAGTCCGCATGGCGATTGACAGCGTAGAATGAAGG DNA 2: CCTTCATTCTACGCTGTCAATCGCCATGCGGACTTTGACCTTCCGGTGACCTCGTTTGGC | 9.51 PBM z-score against 500 random probes | 7.39 PBM z-score against 500 random probes | 9.6 PBM z-score against 500 random probes | 6.23 PBM z-score against 500 random probes | 7.15 PBM z-score against 500 random probes | 7.41 PBM z-score against 500 random probes | 7.56 PBM z-score against 500 random probes | 7.14 PBM z-score against 500 random probes | 8.64 PBM z-score against 500 random probes | 8.77 PBM z-score against 500 random probes | 5.39 PBM z-score against 500 random probes |
| NRC3_wobSeed117_DR4_A23C_o1 (dsDNA) DNA 1: GCCGTCAAAGTTCAACTAAGGTCACGTAAAGCACGCGCGATTGACAGCGTAGAATGAAGG DNA 2: CCTTCATTCTACGCTGTCAATCGCGCGTGCTTTACGTGACCTTAGTTGAACTTTGACGGC |  | 8.08 PBM z-score against 500 random probes | 7.95 PBM z-score against 500 random probes | 6.07 PBM z-score against 500 random probes | 7.09 PBM z-score against 500 random probes | 7.87 PBM z-score against 500 random probes | 7.49 PBM z-score against 500 random probes |  | 7.83 PBM z-score against 500 random probes | 7.16 PBM z-score against 500 random probes | 5.72 PBM z-score against 500 random probes |
| NRC3_wobSeed49_DR2_T8A_o1 (dsDNA) DNA 1: GCCAAACAAGGTCAAGAGGTCAAAGTCCGCTTCCCGGCGATTGACAGCGTAGAATGAAGG DNA 2: CCTTCATTCTACGCTGTCAATCGCCGGGAAGCGGACTTTGACCTCTTGACCTTGTTTGGC | 9.65 PBM z-score against 500 random probes | 7.44 PBM z-score against 500 random probes | 9.11 PBM z-score against 500 random probes | 6.31 PBM z-score against 500 random probes | 6.73 PBM z-score against 500 random probes | 7.38 PBM z-score against 500 random probes | 7.22 PBM z-score against 500 random probes | 7.02 PBM z-score against 500 random probes | 8.52 PBM z-score against 500 random probes | 9.05 PBM z-score against 500 random probes | 4.99 PBM z-score against 500 random probes |
| NRC3_random_hg19_257_o1 (dsDNA) DNA 1: GCACACTGACAATAGCATACACCTTTCCAGAATGCGGCGATTGACAGCGTAGAATGAAGG DNA 2: CCTTCATTCTACGCTGTCAATCGCCGCATTCTGGAAAGGTGTATGCTATTGTCAGTGTGC |  |  |  |  |  | 0.17 PBM z-score against 500 random probes |  |  |  | 0.41 PBM z-score against 500 random probes | 0.05 PBM z-score against 500 random probes |
| NRC3_wobSeed133_DR5_T19G_o1 (dsDNA) DNA 1: GCCGTCCAAGGTCAATGCGAGGTCAGTGAAAGCATTGCGATTGACAGCGTAGAATGAAGG DNA 2: CCTTCATTCTACGCTGTCAATCGCAATGCTTTCACTGACCTCGCATTGACCTTGGACGGC |  |  | 8.33 PBM z-score against 500 random probes |  |  | 6.42 PBM z-score against 500 random probes |  |  |  | 7.03 PBM z-score against 500 random probes | 5.07 PBM z-score against 500 random probes |
| NRC3_wobSeed77_DR3_C8G_o1 (dsDNA) DNA 1: GCACTTAGGGGTCAACGAGGTTATAGCACGCGTATAGCGATTGACAGCGTAGAATGAAGG DNA 2: CCTTCATTCTACGCTGTCAATCGCTATACGCGTGCTATAACCTCGTTGACCCCTAAGTGC | 9.89 PBM z-score against 500 random probes | 7.15 PBM z-score against 500 random probes | 8.09 PBM z-score against 500 random probes | 5.68 PBM z-score against 500 random probes | 6.91 PBM z-score against 500 random probes | 7.16 PBM z-score against 500 random probes | 8.74 PBM z-score against 500 random probes | 7.03 PBM z-score against 500 random probes | 9.08 PBM z-score against 500 random probes | 7.93 PBM z-score against 500 random probes | 4.82 PBM z-score against 500 random probes |
| NRC3_wobSeed72_DR2_G20T_o1 (dsDNA) DNA 1: GCTCGAGTAGGTTACGGGGTCATTCAGGGATGAAGAGCGATTGACAGCGTAGAATGAAGG DNA 2: CCTTCATTCTACGCTGTCAATCGCTCTTCATCCCTGAATGACCCCGTAACCTACTCGAGC |  |  |  |  |  | 6.49 PBM z-score against 500 random probes |  |  |  | 7.48 PBM z-score against 500 random probes | 4.85 PBM z-score against 500 random probes |
| NRC3_wobSeed141_DR5_A24C_o1 (dsDNA) DNA 1: GCAGTCAAAGTTCAGGACGAGGTCACGTAAAGCACGGCGATTGACAGCGTAGAATGAAGG DNA 2: CCTTCATTCTACGCTGTCAATCGCCGTGCTTTACGTGACCTCGTCCTGAACTTTGACTGC |  |  | 8.19 PBM z-score against 500 random probes | 5.48 PBM z-score against 500 random probes |  | 6.95 PBM z-score against 500 random probes | 6.63 PBM z-score against 500 random probes |  |  | 7.52 PBM z-score against 500 random probes | 5.13 PBM z-score against 500 random probes |
| NRC3_wobSeed101_DR4_C8G_o1 (dsDNA) DNA 1: GCCCTTAGGGGTCACTCCAGGTTATAGCATCGGAGTGCGATTGACAGCGTAGAATGAAGG DNA 2: CCTTCATTCTACGCTGTCAATCGCACTCCGATGCTATAACCTGGAGTGACCCCTAAGGGC | 8.62 PBM z-score against 500 random probes | 8.6 PBM z-score against 500 random probes | 7.43 PBM z-score against 500 random probes |  | 7.21 PBM z-score against 500 random probes | 7.15 PBM z-score against 500 random probes | 6.64 PBM z-score against 500 random probes | 6.76 PBM z-score against 500 random probes | 8.32 PBM z-score against 500 random probes | 7.45 PBM z-score against 500 random probes | 5.63 PBM z-score against 500 random probes |
| NRC3_wobSeed25_DR1_T8A_o1 (dsDNA) DNA 1: GCCAAACAAGGTCAAAGGTCAAAGTCGAGCCAACCAGCGATTGACAGCGTAGAATGAAGG DNA 2: CCTTCATTCTACGCTGTCAATCGCTGGTTGGCTCGACTTTGACCTTTGACCTTGTTTGGC | 11.2 PBM z-score against 500 random probes | 8.24 PBM z-score against 500 random probes | 9.65 PBM z-score against 500 random probes | 6.19 PBM z-score against 500 random probes | 8.13 PBM z-score against 500 random probes | 7.73 PBM z-score against 500 random probes | 7.62 PBM z-score against 500 random probes |  | 9.54 PBM z-score against 500 random probes | 9.67 PBM z-score against 500 random probes | 5.07 PBM z-score against 500 random probes |
| NRC3_wobSeed25_DR1_T8G_o1 (dsDNA) DNA 1: GCCAAACGAGGTCAAAGGTCAAAGTCGAGCCAACCAGCGATTGACAGCGTAGAATGAAGG DNA 2: CCTTCATTCTACGCTGTCAATCGCTGGTTGGCTCGACTTTGACCTTTGACCTCGTTTGGC | 11 PBM z-score against 500 random probes | 8.54 PBM z-score against 500 random probes | 9.68 PBM z-score against 500 random probes | 6.33 PBM z-score against 500 random probes | 8.31 PBM z-score against 500 random probes | 7.89 PBM z-score against 500 random probes | 8.02 PBM z-score against 500 random probes |  | 9.93 PBM z-score against 500 random probes | 9.62 PBM z-score against 500 random probes | 5.46 PBM z-score against 500 random probes |

From PMC6555819, “Comprehensive study of nuclear receptor DNA binding provides a revised framework for understanding receptor specificity”
